In article PMC8242512 one finds Kd data, which are given here for one substance.

The experiment addresses soluble trimeric SARS-CoV-2 S glycoprotein, 2P-stabilized, lacking the furin cleavage site (SARS-CoV-2) (UniProt P0DTC2). The experiment in a line: SPR; S protein captured on a Ni2+-loaded NTA chip; ACE2 as analyte, serial dilutions 200 nM to 3.125 nM in triplicate, 50 ul/min, HBS P+ buffer, association 300 s, dissociation 600 s; 1:1 binding model (Biacore Evaluation Software). A general note: Surface plasmon resonance follows binding to a sensor surface in real time, without labels.

truncated soluble angiotensin-converting enzyme 2 (hACE2), sequence (Q9BYF1 18-626): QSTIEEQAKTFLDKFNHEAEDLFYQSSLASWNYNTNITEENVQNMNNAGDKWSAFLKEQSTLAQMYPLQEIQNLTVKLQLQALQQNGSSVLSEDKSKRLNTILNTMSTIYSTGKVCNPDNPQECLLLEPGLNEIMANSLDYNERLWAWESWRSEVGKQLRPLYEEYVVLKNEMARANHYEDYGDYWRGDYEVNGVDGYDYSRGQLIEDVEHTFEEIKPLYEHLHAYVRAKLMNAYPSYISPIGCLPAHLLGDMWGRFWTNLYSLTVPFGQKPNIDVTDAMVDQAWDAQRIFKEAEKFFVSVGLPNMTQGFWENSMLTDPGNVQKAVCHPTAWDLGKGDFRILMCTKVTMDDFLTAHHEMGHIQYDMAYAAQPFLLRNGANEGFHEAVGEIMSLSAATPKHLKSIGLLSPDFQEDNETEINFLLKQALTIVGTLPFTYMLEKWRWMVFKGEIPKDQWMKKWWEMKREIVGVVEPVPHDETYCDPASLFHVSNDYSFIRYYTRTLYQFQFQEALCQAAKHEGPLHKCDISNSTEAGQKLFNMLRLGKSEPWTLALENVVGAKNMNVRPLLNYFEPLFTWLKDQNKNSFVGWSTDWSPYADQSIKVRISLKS

With “truncated soluble angiotensin-converting enzyme 2 (hACE2) (from UniProt Q9BYF1 18-626) (receptor)”, the Kd (commonly the equilibrium constant for the complex coming apart) was 84 nM.
